Data as given in US20260055194A1 (LYCIA THERAPEUTICS, published 2026).
Like-named read-outs stand apart in the source and are kept apart here.

Columns and labels:
[1] = target: human CI-M6PR on K562 cells (human, UniProt P11717 41-2491); experiment: cell-based or functional assay
[2] = target: T1, purified recombinant CI-M6PR (domains 1-9) protein (human, UniProt P11717 41-1365, limits assumed); experiment: ELISA on human M6PR, Abs 450nm, antibody about 0.0005-1 ug/mL
T1 construct: domain: domains 1-9; also called human CI-M6PR; wild-type human CI-M6PR

[3] = target: T2, Recombinant human M6PR ECD-His (human, UniProt P11717 41-2304); experiment: Octet BLI; mIgG from hybridoma supernatant on anti-mouse biosensor, His-tagged human M6PR analyte
T2 construct: extracellular domain; also called recombinant His-tagged human M6PR; human M6PR antigen; not shown: His tag

[4] = target: T1, purified recombinant CI-M6PR (domains …); experiment: BLI (GatorPrime), antibody on anti-mouse IgG Fc sensor, CI-M6PR (domains 1-9) in solution, global 1:1 fit;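 further: human CI-M6PR tested at a range of concentrations against captured antibodies, measured at 30 °C, analyte diluted in PBS carrying Tween-20, BSA and NaN3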
[5] = target: T1, purified recombinant CI-M6PR (domains …); experiment: ELISA on human M6PR, Abs 450nm, antibody about 0.0005-1 ug/mL; remark: listed apart in the source
[6] = target: T1, purified recombinant CI-M6PR (domains …); experiment: as above; remark: listed apart in the source
[7] = target: T1, purified recombinant CI-M6PR (domains …); experiment: as above; remark: listed apart in the source
[8] = target: T1, purified recombinant CI-M6PR (domains …); experiment: as above; remark: listed apart in the source
[9] = target: T1, purified recombinant CI-M6PR (domains …); experiment: as above; remark: listed apart in the source
[10] = target: T1, purified recombinant CI-M6PR (domains …); experiment: as above; remark: listed apart in the source

Uptake pHrodo (MFI) [1] [MFI] | EC50 (read off the curve) [2] [µg/mL] | Kd [3] [nM] | Kd [4] [nM] | koff [4] [s⁻¹] | kon [4] [M⁻¹ s⁻¹] | EC50 (read off the curve) [5] [µg/mL] | EC50 (read off the curve) [6] [µg/mL] | EC50 (read off the curve) [7] [µg/mL] | EC50 (read off the curve) [8] [µg/mL] | EC50 (read off the curve) [9] [µg/mL] | EC50 (read off the curve) [10] [µg/mL] | Binder
9980 |  | 43.1 | 62.2 | 0.000789 | 12700 |  | ~0.02 |  |  |  |  | 21D5 (antibody, V domains shown, also called Clone # 78) VH: QVQLKQSGPGLVQPSQSLSITCTVSGFSLTRYGVHWVRQSPGKGLEWLGVIWRGGSTDYNAAFMSRLSITKDNSKSQVFFKMNSLQADDTAIYYCAKEGTGILDSWGQGTTLTVSS VL: DIVLTQSPASLAVSLGQRATISCRASKSVSTSGYSYMHWYQQKPGQPPTLLIYLASNLESGVPARFSGSGSGTDFTLNIHPVEEEDAATYYCQHSRELPYTFGGGTKLEIK
10400 |  | 8.74 | 13 | 0.000616 | 47200 |  |  | ~0.01 |  |  |  | 18G4 (antibody, V domains shown, also called Clone # 45) VH: EVKLMESGGGLVQPGASLRLSCAASGFTFTDYYMSWVRQPPGKAPEWLALIRNKANGYTTEYNASVKGRFTISRDNSQNILYLQMNTLRTEDSATYYCVRGGFAYWGQGTLVTVSA VL: QAVVIQESALTTSPGETVTLTCRSSTGAVTTSHYAIWVQEKPDHLFTGLIGGTNNRVPGVPARFSGSLIADKAALTITGAQTEDEAIYFCALWYTNQFIFGSGTKVTVL
9700 |  | 2.59 | 3.44 | 0.000445 | 129000 |  |  |  |  |  |  | 53B11 (antibody, V domains shown, also called Clone # 33) VH: EVQLQQSGPELVKPGTSMKISCKASGYSFTDYTVNWVKQSHGKNLEWIGLINPYNGGTSYNQKFKGKATLTVDKSSSTAYMELLSLTSEDSAVYYCARWGYYYATSYYFAMDYWGQGTSVTVSS VL: DIQMNQSPSSLSASLGDTITITCHASQNINVWLSWYQQKPGNIPKLLIYKASNLHTGVPSRFSGSGSGTGFTLTISSLQPEDIATYYCQQGQSYPWTFGGGTKLEIK
30800 |  | 5.27 | 6.33 | 0.00104 | 164000 |  |  |  |  |  | ~0.02 | 43C8 (antibody, V domains shown, also called Clone # 28) VH: EIQLQQSGPELVKPGASVKMSCKASGYTFTDYVISWVKQRTGQGLEWIGEIYPGSHTYYNEKFKGKATLTADKSSNTAYMQLSSLTSEDSAVYFCALTAGAMDYWGQGTSVTVSS VL: NIMMTQSPSSLAVSAGEKVTMSCKSSQSVLYSSNQKNYLAWYQQKPGQSPKLLIYWASTRESGVPDRFTGSGSGTDFTLTISSVHAEDLAVYYCHQYLSSYTFGGGTKLEIK
36000 |  | 30 | 108 | 0.00872 | 81000 |  | ~0.01 |  |  |  |  | 45A12 (antibody, V domains shown, also called Clone # 36) VH: QVQLQQSGAELMKPGASVKISCKATGYTFSTYWIEWVKQRPGHGLEWIGEILPGSGSTNYNEKFKGKATFTADASSNTAYMQLSSLTSEDSAVYYCARDGGAMDYWGQGTSVTVSS VL: NIMMTQSPSSLAVSAGEKVTMSCKSSQRVLYSSNQKNYLAWYQQKPGQSPKLLIYWASTRESGVPDRFTGSGSGTDFTLTISTVQPEDLAVYYCHQYLSSRTFGGGTKLEIK

Second part, the binder before the results:

Binder | Uptake pHrodo (MFI) [1] [MFI] | EC50 (read off the curve) [2] [µg/mL] | Kd [3] [nM] | Kd [4] [nM] | koff [4] [s⁻¹] | kon [4] [M⁻¹ s⁻¹] | EC50 (read off the curve) [5] [µg/mL] | EC50 (read off the curve) [6] [µg/mL] | EC50 (read off the curve) [7] [µg/mL] | EC50 (read off the curve) [8] [µg/mL] | EC50 (read off the curve) [9] [µg/mL] | EC50 (read off the curve) [10] [µg/mL]
17F11 (antibody, V domains shown, also called Clone # 55) VH: EVQLQQSGPELVKPGASVKMSCKASGYTFTDYNMHWVKQSHGKSLEWIGYINPNNGGTNYNQKFQGKATLTVNKSSRTAYMELRSLTSEDSAVYYCVRFYYGSRYYAMDYWGQGTSVTVSS VL: DIVMTQSPATLSVTPGDRVSLSCRASQSISDYLHWYQQKSHESPRLLIKYASQSISGIPSRFSGSGSGSDFTLSINSVEPEDVGVYYCQNGHSFPYTFGGGTKLEIK | 12500 | ~0.01 | 10.5 | 10 | 0.000454 | 45300 |  |  |  |  |  | 
06D1 (antibody, V domains shown, also called Clone # 11) VH: EVQLQQSGAELVRPGASVKLSCTASGFNIKDDYMHWVKQRPEQGLEWIGWIDPENGDTEYASKFQGKATITADTSSNTAYLQLSSLTSEDTAVYYCTTVAPGYYAMDYWGQGTSVTVSS VL: ENVLTQSPAIMSASPGEKVTMTCRASSSVSSSYLHWYQQKSGASPKLWIYSTSNLASGVPARFSGSGSGTSYSLTISSVEAEDAATYYCQQYSGFTFGSGTKLEIK | 22400 |  | 17.1 | 45.1 | 0.0111 | 245000 | ~0.01 |  |  |  |  | 
06H10 (antibody, V domains shown) VH: EVQLQQSGAELVRPGASVKLSCTASGFNIKDDYMHWVKQRPEQGLEWIGWIDPENGDTEYASKFQGKATITADTSSNTAYLQLSSLTSEDTAVYYCTTVAPYYYAMDYWGQGTSVTVSS VL: QIVLTQSPAIMSASLGEEITLTCSASSSVSYMHWYQQKSGTSPKLLIYSTSNLASGVPSRFSGSGSGTFYSLTISSVEAEDAADYYCHQWSSYHTFGGGTKLEIK | 65800 |  |  |  |  |  |  |  |  |  |  | 
06D12 (antibody, V domains shown, also called Clone # 10) VH: QVQLQQSGAELMKPGASVKLSCKATGYTFTGYWIEWVKQRPGHGLEWIGEILPGSGSTNYNEKFKGKATFTADTSSNTAYMQLSSLTTEDSAIYYCAYTVVATDWYFDVWGTGTTVTVSS VL: ENVLTQSPAIMSASLGEKVTMSCRASSSVNYMYWYQQKSDASPKLWIYYTSNLAPGVPARFSGSGSGNSYSLTISSMEGEDAATYYCQQFTSSPWTFGGGTKLEIK | 47000 |  | 9.56 |  |  |  |  |  |  |  |  | 
12D5 (antibody, V domains shown, also called Clone # 26) VH: QVQLQQPGAELVKPGASVKLSCKASGYTFTNYWMHWVKQRPGQGLEWIGMIHPNSGSTNYNEKFKSKATLTVDKSSSTAYMQLSSLTSEDSAVYYCARPHGYPFGYWGQGTTLTVSS VL: ENVLTQSPAIMSASLGEKVTMSCRASSSVNYMYWYQQKSDASPKLWIYYTSNLAPGVPARFSGSGSGNSYSLTISSMEGEDAATYYCQQFTSSPYTFGGGTKLEIK | 35800 |  | 12.2 | 184 | 0.0123 | 66700 |  |  |  | ~0.01 |  | 
06F1 (antibody, V domains shown, also called Clone # 67) VH: EVQLQQSGAELVRPGASVKLSCTASGFNIKDDYMHWVKQRPEQGLEWIGWIDPENGDTEYASKFQGKATITADTSSNTAYLQLSSLTSEDTAVYYCTNYYGSSPFDYWGQGTTLTVSS VL: QIVLTQSPAIMSAFLGERVTMTCTASSSVSSRYLHWYQQKPGSSPKLWIYSTSNLASGVPARFSGSGSGTSYSLTISSMEAEDAATYYCHQYHRSPLTFGAGTKLELK | 34200 |  | 17.3 |  |  |  |  |  |  |  |  | 
08D8 (antibody, V domains shown, also called Clone # 84) VH: QVQLQQPGAELVKPGASVKLSCKASGYTFTSYWMQWVKQRPGQGLEWIGEIDPSDSYTNYNQKFKGKATLTVDTSSSTAYMQLSSLTSEDSAVYYCARGDYYGSSSWFAYWGQGTLVTVSA VL: DIVMTQAAPSVPVTPGESVSISCRSSKSLLHSNGNTYLYWFLQRPGQSPQLLIYRMSNLASGVPDRFSGSGSGTAFTLRISRVEAEDVGVYYCMQHLEYPFTFGAGTKLELK | 10900 |  | 259 | 351 | 0.00185 | 5250 |  |  |  |  |  | 
03C7 (antibody, V domains shown, also called Clone # 85) VH: QVQLQQSGPELVKPGASVKISCKASGYSFTSYYIHWVKQRPGQGLEWIGWIYPGSGNTKYNEKFKGKATLTADTSSSTAYMQLSSLTSEDSAVYYCARMGSSYWYFDVWGTGTTVTVSS VL: ENVLTQSPAIMAASLGQKVTMTCSASSSVSSSYLHWYQQKSGASPKPLIHRTSNLASGVPARFSGSGSGTSYSLTISSVEAEDDATYYCQQWSGYPLTFGAGTKLELK | 41700 |  | 17.5 | 24.9 | 0.0154 | 618000 |  |  |  |  | ~0.01 | 
16H4 (antibody, V domains shown, also called Clone # 95) VH: QVQLKQSGPGLVQPSQSLSITCTASGFSLTSYGVHWVRQSPGKGLEWLGVIWSGGSTDYSAAFISRLSISKDSSKSQVFFKMNSLQADDTAIYYCARNLPITSYDPSSFYAMDYWGQGTSVTVSS VL: DIQMTQTTSSLSASLGDRVTISCSASQGISNYLNWYQQKPDGTVKLLIYYTSSLHSGVPSRFSGSGSGTDYSLTISNLEPEDIATYYCQQYSKLPFTFGSGTKLEIK | 13400 |  | 615 |  |  |  |  |  |  |  |  | 
11B12 (antibody, V domains shown, also called Clone # 75) VH: QVQLQQSGPELVKPGASVKISCKASGYSFTSYYIHWVKQRPGQGLEWIGWIYPGSGNTKYNEKFKGKATLTADTSSSTAYMQLSSLTSEDSAVYYCARGNWHWYFDVWGTGTTVTVSS VL: EIVLTQSPALMAASPGEKVTITCSVSSSISSSNLHWYQQKSETSPKPWIYGTSNLASGVPVRFSGSGSGTSYSLTISSMEAEDAATYYCQQWSSYPLTFGAGTKLELK | 43000 |  | 90.6 | 237 | 0.0112 | 47400 |  |  |  |  |  | 
